Laboratory results from publication doi:10.1101/2022.09.15.508077 (bioRxiv, 2022).
Blank lines part the entries; values can stand above or below the binder they belong to.

Legend:
[1] = target: T1, UFL1 27-200 (the UFL1 piece of the fusion DDRGK1-UFL1ΔN) (UniProt O94874 27-200); experiment: crystal structure
T1 sequence: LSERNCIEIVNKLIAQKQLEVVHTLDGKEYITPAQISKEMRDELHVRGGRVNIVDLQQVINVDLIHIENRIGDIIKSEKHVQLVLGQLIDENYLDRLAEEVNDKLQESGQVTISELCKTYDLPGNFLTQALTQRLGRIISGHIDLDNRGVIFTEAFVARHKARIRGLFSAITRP

[2] = target: T2, UFC1 (UniProt Q9Y3C8 1-167); experiment: NMR titration
T2 sequence: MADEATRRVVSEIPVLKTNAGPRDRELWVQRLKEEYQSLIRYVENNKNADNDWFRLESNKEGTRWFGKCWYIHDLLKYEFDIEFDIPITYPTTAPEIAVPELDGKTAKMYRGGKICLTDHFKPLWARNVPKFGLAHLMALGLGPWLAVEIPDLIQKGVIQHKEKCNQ

[3] = target: T2, UFC1; experiment: ITC

- binding result [1]: binds
B1: DDRGK1 207-305 (the DDRGK1 piece of the fusion DDRGK1-UFL1ΔN) (domain or fragment)
chain: MTEEQSQSFLTEFINYIKQSKVVLLEDLASQVGLRTQDTINRIQDLLAEGTITGVIDDRGKFIYITPEELAAVANFIRQRGRVSIAELAQASNSLIAWG

- binding result [2]: binds
B2: UBA5 C-terminus (UBA5 347-404) (domain or fragment)
chain: SEVSEEELKNFSGPVPDLPEGITVAYTIPKKQEDSVTELTVEDSGESLEDLMAKMKNM

- Kd [3]: 2400 nM
B3: DDRGK1_(207-314)-UFL1_(1-200) fusion protein (other)
chain: MTEEQSQSFLTEFINYIKQSKVVLLEDLASQVGLRTQDTINRIQDLLAEGTITGVIDDRGKFIYITPEELAAVANFIRQRGRVSIAELAQASNSLIAWGRESPAQAPAMADAWEEIRRLAADFQRAQFAEATQRLSERNCIEIVNKLIAQKQLEVVHTLDGKEYITPAQISKEMRDELHVRGGRVNIVDLQQVINVDLIHIENRIGDIIKSEKHVQLVLGQLIDENYLDRLAEEVNDKLQESGQVTISELCKTYDLPGNFLTQALTQRLGRIISGHIDLDNRGVIFTEAFVARHKARIRGLFSAITRP
